Measurements reported in patent US20190263932A1.

Columns and labels:
[1] = target: recombinant human TrkA protein (human) (UniProt P04629); assay: NGF-blocking ELISA on coated human TrkA, 100 nM btNGF; mAb 0.16 nM
[2] = target: recombinant human TrkA protein (human) (UniProt P04629); assay: NGF-blocking ELISA on coated human TrkA, 100 nM btNGF; mAb 2.5 nM
[3] = target: recombinant human TrkA protein (human) (UniProt P04629); assay: NGF-blocking ELISA on coated human TrkA, 100 nM btNGF; mAb 0.02 nM
[4] = target: recombinant human TrkA protein (human) (UniProt P04629); assay: NGF-blocking ELISA on coated human TrkA, 100 nM btNGF; mAb 0.04 nM
[5] = target: recombinant human TrkA protein (human) (UniProt P04629); assay: NGF-blocking ELISA on coated human TrkA, 100 nM btNGF; mAb 20 nM
[6] = target: recombinant human TrkA protein (human) (UniProt P04629); assay: NGF-blocking ELISA on coated human TrkA, 100 nM btNGF; mAb 0.63 nM
[7] = target: recombinant human TrkA protein (human) (UniProt P04629); assay: NGF-blocking ELISA on coated human TrkA, 100 nM btNGF; mAb 0.08 nM
[8] = target: recombinant human TrkA protein (human) (UniProt P04629); assay: NGF-blocking ELISA on coated human TrkA, 100 nM btNGF; mAb 1.25 nM
[9] = target: recombinant human TrkA protein (human) (UniProt P04629); assay: NGF-blocking ELISA on coated human TrkA, 100 nM btNGF; mAb 0.31 (printed pM, two-fold series gives nM)
[10] = target: recombinant human TrkA protein (human) (UniProt P04629); assay: NGF-blocking ELISA on coated human TrkA, 100 nM btNGF; mAb 10 nM
[11] = target: recombinant human TrkA protein (human) (UniProt P04629); assay: NGF-blocking ELISA on coated human TrkA, 100 nM btNGF; mAb 5 nM
[12] = target: TrkA in rat brain, dorsal root ganglia and skin tissue (rat) (UniProt P35739); assay: cell-based or functional assay
[13] = target: human TrkA receptor expressed in transfected 3T3 fibroblast cells (human) (UniProt P04629); assay: cell-based or functional assay
[14] = target: rat TrkA receptor expressed in transfected HEK293 cells (rat) (UniProt P35739); assay: cell-based or functional assay
Sequence of rat TrkA receptor expressed in transfected HEK293 cells (rat) (P35739 33-799): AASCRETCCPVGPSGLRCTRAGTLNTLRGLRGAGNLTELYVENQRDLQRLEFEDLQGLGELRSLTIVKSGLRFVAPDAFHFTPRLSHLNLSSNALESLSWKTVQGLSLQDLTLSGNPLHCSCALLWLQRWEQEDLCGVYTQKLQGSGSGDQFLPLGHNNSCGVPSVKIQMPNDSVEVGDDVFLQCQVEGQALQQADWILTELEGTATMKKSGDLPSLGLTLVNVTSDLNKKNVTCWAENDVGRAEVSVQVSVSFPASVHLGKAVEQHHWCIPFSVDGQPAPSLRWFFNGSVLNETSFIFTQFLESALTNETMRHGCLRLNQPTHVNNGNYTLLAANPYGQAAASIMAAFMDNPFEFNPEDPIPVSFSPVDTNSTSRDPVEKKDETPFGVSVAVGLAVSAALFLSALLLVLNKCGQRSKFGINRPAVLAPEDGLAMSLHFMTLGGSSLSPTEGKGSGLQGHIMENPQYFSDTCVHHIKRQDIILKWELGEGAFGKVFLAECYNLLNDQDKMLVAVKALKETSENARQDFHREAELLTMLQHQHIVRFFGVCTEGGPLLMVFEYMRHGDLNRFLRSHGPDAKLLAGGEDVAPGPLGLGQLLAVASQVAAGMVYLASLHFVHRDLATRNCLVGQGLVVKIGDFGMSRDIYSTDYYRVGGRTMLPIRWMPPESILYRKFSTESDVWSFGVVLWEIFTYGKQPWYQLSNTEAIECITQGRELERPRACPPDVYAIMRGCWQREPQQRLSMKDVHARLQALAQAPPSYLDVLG

Sequence of TrkA in rat brain, dorsal root ganglia and skin tissue (rat) (P35739 33-799): as above
Sequence of rat β-NGF (P25427 122-241 limits assumed): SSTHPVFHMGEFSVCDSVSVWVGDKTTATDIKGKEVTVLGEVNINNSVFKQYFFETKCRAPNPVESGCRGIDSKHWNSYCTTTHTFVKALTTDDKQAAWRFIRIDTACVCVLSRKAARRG
Sequence of recombinant human TrkA protein (human) (P04629 other isoform, or with tags, fused parts or gaps limits assumed): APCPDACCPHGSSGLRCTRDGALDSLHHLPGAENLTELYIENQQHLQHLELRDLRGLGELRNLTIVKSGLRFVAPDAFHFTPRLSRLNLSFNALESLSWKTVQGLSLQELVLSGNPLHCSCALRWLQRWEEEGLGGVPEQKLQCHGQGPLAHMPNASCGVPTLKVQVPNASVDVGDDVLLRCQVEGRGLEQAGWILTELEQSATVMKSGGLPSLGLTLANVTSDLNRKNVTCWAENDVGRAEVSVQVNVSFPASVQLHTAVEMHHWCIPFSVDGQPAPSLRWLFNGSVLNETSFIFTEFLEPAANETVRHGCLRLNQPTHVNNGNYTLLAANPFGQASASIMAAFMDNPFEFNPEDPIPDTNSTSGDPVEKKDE
Sequence of human TrkA receptor expressed in transfected 3T3 fibroblast cells (human) (P04629 33-796): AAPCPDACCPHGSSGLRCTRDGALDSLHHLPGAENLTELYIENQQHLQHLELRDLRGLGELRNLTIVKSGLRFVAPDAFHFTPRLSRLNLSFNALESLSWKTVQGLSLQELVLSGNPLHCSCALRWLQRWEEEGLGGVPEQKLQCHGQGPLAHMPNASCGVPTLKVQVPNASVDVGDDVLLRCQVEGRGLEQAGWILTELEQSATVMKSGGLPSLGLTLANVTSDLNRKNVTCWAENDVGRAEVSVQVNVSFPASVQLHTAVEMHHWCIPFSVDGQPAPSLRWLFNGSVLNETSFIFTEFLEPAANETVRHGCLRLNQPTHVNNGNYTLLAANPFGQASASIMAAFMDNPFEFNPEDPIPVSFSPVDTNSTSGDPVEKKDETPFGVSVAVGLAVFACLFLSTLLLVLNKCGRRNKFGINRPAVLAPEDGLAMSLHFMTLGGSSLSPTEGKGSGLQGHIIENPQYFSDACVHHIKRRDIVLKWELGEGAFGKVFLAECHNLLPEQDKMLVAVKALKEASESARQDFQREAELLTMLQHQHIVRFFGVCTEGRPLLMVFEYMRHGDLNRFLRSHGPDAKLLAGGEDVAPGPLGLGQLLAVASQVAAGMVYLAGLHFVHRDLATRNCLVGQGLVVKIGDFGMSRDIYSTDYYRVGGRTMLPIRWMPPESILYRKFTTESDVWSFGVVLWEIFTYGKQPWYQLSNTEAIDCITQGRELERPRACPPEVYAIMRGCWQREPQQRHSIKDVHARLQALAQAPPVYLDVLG

Substance: IgG1 isotype control antibody
- Absorbance 450 nm [1]: 1.12
- Absorbance 450 nm [2]: 1.17
- Absorbance 450 nm [3]: 1.14
- Absorbance 450 nm [4]: 1.1
- Absorbance 450 nm [5]: 1.13
- Absorbance 450 nm [6]: 1.14
- Absorbance 450 nm [7]: 1.16
- Absorbance 450 nm [8]: 1.04
- Absorbance 450 nm [9]: 1.19
- Absorbance 450 nm [10]: 0.97
- Absorbance 450 nm [11]: 1.1

Substance: IgG4 isotype control antibody
- Absorbance 450 nm [1]: 1.13
- Absorbance 450 nm [2]: 1.07
- Absorbance 450 nm [3]: 1.13
- Absorbance 450 nm [4]: 1.15
- Absorbance 450 nm [5]: 1.12
- pTrkA counts per second, DRG, NGF stimulated, 10 mg/kg SC (counts per second) [12]: 483000
- pTrkA counts per second, DRG, baseline, 10 mg/kg SC (counts per second) [12]: 109000
- pTrkA counts per second, brain, NGF stimulated, 10 mg/kg SC (counts per second) [12]: 507000
- pTrkA counts per second, brain, baseline, 10 mg/kg SC (counts per second) [12]: 70600
- pTrkA counts per second, skin, NGF stimulated, 10 mg/kg SC (counts per second) [12]: 33300
- pTrkA counts per second, skin, baseline, 10 mg/kg SC (counts per second) [12]: 14500
- pTrkA counts per second, +mAb 1 hr (1 uM), no NGF (counts per second) [13]: 28400
- pTrkA counts per second, +mAb 24 hr (1 uM), no NGF (counts per second) [13]: 28700
- pTrkA counts per second, NGF + mAb 1 hr (1 uM) (counts per second) [13]: 238000
- pTrkA counts per second, NGF + mAb 24 hr (1 uM) (counts per second) [13]: 290000
- Absorbance 450 nm [6]: 1.13
- Absorbance 450 nm [7]: 1.14
- Absorbance 450 nm [8]: 1.03
- Absorbance 450 nm [9]: 1.14
- Absorbance 450 nm [10]: 1.11
- Absorbance 450 nm [11]: 1.08

Substance: rat β-NGF (from UniProt P25427 122-241) (ligand)
- pTrkA counts per second, 10 ug/mL NGF alone (mAb A column) (counts per second) [14]: 2.13e+06
- pTrkA counts per second, 10 ug/mL NGF alone (mAb B column) (counts per second) [14]: 4.29e+06
- pTrkA counts per second, 10 ug/mL NGF alone (mAb C column) (counts per second) [14]: 2.81e+06
- pTrkA counts per second, 10 ug/mL NGF alone (mAb D column) (counts per second) [14]: 3.25e+06
- pTrkA counts per second, 10 ug/mL NGF alone (mAb E column) (counts per second) [14]: 2.76e+06
